According to patent publication US7202329 (MYRIAD GENETICS, dated 2007):

B1: Rho-associated (ROCK1) (aa 462-617) (other, UniProt Q13464 462-617, looked up)
chain: KIMKELDEEGNQRRNLESTVSQIEKEKMLLQHRINEYQRKAEQENEKRRNVENEVSTLKDQLEDLKKVSQNSQLANEKLSQLQKQLEEANDLLRTESDTAVRLRKSHTEMSKSISQLESLNRELQERNRILENSKSQTDKDYYQLQAILEAERRDR
notes: also called Rho-associated coiled coil-containing kinase ROCK1
B2: Tropomyosin TM30 p1 (TPM4) (aa 79-142) (other, human, UniProt P67936 79-142, looked up)
chain: EAEKAADESERGMKVIENRAMKDEEKMEIQEMQLKEAKHIAEEADRKYEEVARKLVILEGELER
notes: range 79-142
B3: Zinc finger protein 231 (ZNF231) (aa 2308-2438) (other, UniProt Q9UPA5 2308-2438, looked up)
chain: EEPLPTTTPAAIKEAAGAPAPAPLAGQKPPADAAPGGGSGALSRPGFEKEEASQEERQRKQQEQLLQLERERVELEKLRQLRLQEELERERVELQRHREEEQLLVQRELQELQTIKHHVLQQQQEERQAQF
notes: range 2308-2438
B4: Tropomyosin TM30 p1 (TPM4) (aa 91-142) (other, human, UniProt P67936 91-142, looked up)
chain: MKVIENRAMKDEEKMEIQEMQLKEAKHIAEEADRKYEEVARKLVILEGELER
notes: range 91-142
B5: Chromosome-associated polypeptide HCAP (aa 208-300) (other, human, UniProt Q9UQE7 208-300, looked up)
chain: EELAQYQKWDKMRRALEYTIYNQELNETRAKLDELSAKRETSGEKSRQLRDAQQDARDKMEDIERQVRELKTKISAMKEEKEQLSAERQEQIK
notes: range 208-300
B6: hypothetical protein FLJ10540 (aa 1-120) (other, UniProt Q53EZ4 1-120, looked up)
chain: MSSRSTKDLIKSKWGSKPSNSKSETTLEKLKGEIAHLKTSVDEITSGKGKLTDKERHRLLEKIRVLEAEKEKNAYQLTEKDKEIQRLRDQLKARYSTTTLLEQLEETTREGERREQVLKA
notes: range 1-120
B7: hypothetical protein FLJ10540 (aa 2-132) (other, UniProt Q53EZ4 2-132, looked up)
chain: SSRSTKDLIKSKWGSKPSNSKSETTLEKLKGEIAHLKTSVDEITSGKGKLTDKERHRLLEKIRVLEAEKEKNAYQLTEKDKEIQRLRDQLKARYSTTTLLEQLEETTREGERREQVLKALSEEKDVLKQQL
B8: hypothetical protein FLJ10540 (aa 1-74) (other, UniProt Q53EZ4 1-74, looked up)
chain: MSSRSTKDLIKSKWGSKPSNSKSETTLEKLKGEIAHLKTSVDEITSGKGKLTDKERHRLLEKIRVLEAEKEKNA
notes: range 1-74
B9: hypothetical protein FLJ10540 (aa 1-115) (other, UniProt Q53EZ4 1-115, looked up)
chain: MSSRSTKDLIKSKWGSKPSNSKSETTLEKLKGEIAHLKTSVDEITSGKGKLTDKERHRLLEKIRVLEAEKEKNAYQLTEKDKEIQRLRDQLKARYSTTTLLEQLEETTREGERRE
notes: range 1-115
B10: hypothetical protein FLJ10540 (aa 1-231) (other, UniProt Q53EZ4 1-231, looked up)
chain: MSSRSTKDLIKSKWGSKPSNSKSETTLEKLKGEIAHLKTSVDEITSGKGKLTDKERHRLLEKIRVLEAEKEKNAYQLTEKDKEIQRLRDQLKARYSTTTLLEQLEETTREGERREQVLKALSEEKDVLKQQLSAATSRIAELESKTNTLRLSQTVAPNCFNSSINNIHEMEIQLKDALEKNQQWLVYDQQREVYVKGLLAKIFELEKKTETAAHSLPQQTKKPESEGYLQE
B11: hypothetical protein FLJ10540 (aa 1-110) (other, UniProt Q53EZ4 1-110, looked up)
chain: MSSRSTKDLIKSKWGSKPSNSKSETTLEKLKGEIAHLKTSVDEITSGKGKLTDKERHRLLEKIRVLEAEKEKNAYQLTEKDKEIQRLRDQLKARYSTTTLLEQLEETTRE
notes: range 1-110
B12: hypothetical protein FLJ10540 (aa 115-231) (other, UniProt Q53EZ4 115-231, looked up)
chain: EQVLKALSEEKDVLKQQLSAATSRIAELESKTNTLRLSQTVAPNCFNSSINNIHEMEIQLKDALEKNQQWLVYDQQREVYVKGLLAKIFELEKKTETAAHSLPQQTKKPESEGYLQE
B13: hypothetical protein FLJ10540 (aa 1-117) (other, UniProt Q53EZ4 1-117, looked up)
chain: MSSRSTKDLIKSKWGSKPSNSKSETTLEKLKGEIAHLKTSVDEITSGKGKLTDKERHRLLEKIRVLEAEKEKNAYQLTEKDKEIQRLRDQLKARYSTTTLLEQLEETTREGERREQV
notes: range 1-117
B14: GTPase-activating protein 1 (aa 1404-1553) (other, UniProt P46940 1404-1553, looked up)
chain: LTEILETPATSEQEAEHQRAMQRRAIRDAKTPDKMKKSKSVKEDSNLTLQEKKEKIQTGLKKLTELGTVDPKNKYQELINDIARDIRNQRRYRQRRKAELVKLQQTYAALNSKATFYGEQVDYYKSYIKTCLDNLASKGKVSKKPREMKG
notes: range 1404-1553; also called IQGAP1; IQGAP
B15: GTPase-activating protein 1 (aa 1439-1567) (other, UniProt P46940 1439-1567, looked up)
chain: KKSKSVKEDSNLTLQEKKEKIQTGLKKLTELGTVDPKNKYQELINDIARDIRNQRRYRQRRKAELVKLQQTYAALNSKATFYGEQVDYYKSYIKTCLDNLASKGKVSKKPREMKGKKSKKISLKYTAAR
notes: range 1439-1567; also called IQGAP1; IQGAP
B16: intersectin 1 (aa 437-584) (other, UniProt Q15811 437-584, looked up)
chain: AKRELERQRQLEWERNRRQELLNQRNKEQEDIVVLKAKKKTLEFELEALNDKKHQLEGKLQDIRCRLTTQRQEIESTNKSRELRIAEITHLQQQLQESQQMLGRLIPEKQILNDQLKQVQQNSLHRDSLVTLKRALEAKELARQHLRD
notes: range 437-584
B17: GTPase-activating protein 1 (aa 1463-1568) (other, UniProt P46940 1463-1568, looked up)
chain: LKKLTELGTVDPKNKYQELINDIARDIRNQRRYRQRRKAELVKLQQTYAALNSKATFYGEQVDYYKSYIKTCLDNLASKGKVSKKPREMKGKKSKKISLKYTAARL
notes: range 1463-1568; also called IQGAP1; IQGAP
B18: GTPase-activating protein 1 (aa 1406-1547) (other, UniProt P46940 1406-1547, looked up)
chain: EILETPATSEQEAEHQRAMQRRAIRDAKTPDKMKKSKSVKEDSNLTLQEKKEKIQTGLKKLTELGTVDPKNKYQELINDIARDIRNQRRYRQRRKAELVKLQQTYAALNSKATFYGEQVDYYKSYIKTCLDNLASKGKVSKK
notes: range 1406-1547; also called IQGAP1; IQGAP
B19: mitotic spindle coiled-coil related protein (aa 942-1021) (other, UniProt Q96R06 942-1021, looked up)
chain: LGSDKSAFTRVASMVSLQPAETPGMEESLAEMSIMTTELQSLCSLLQESKEEAIRTLQRKICELQARLQAQEEQHQEVQK
notes: range 942-1021
B20: GTPase-activating protein 1 (aa 1439-1565) (other, UniProt P46940 1439-1565, looked up)
chain: KKSKSVKEDSNLTLQEKKEKIQTGLKKLTELGTVDPKNKYQELINDIARDIRNQRRYRQRRKAELVKLQQTYAALNSKATFYGEQVDYYKSYIKTCLDNLASKGKVSKKPREMKGKKSKKISLKYTA
notes: range 1439-1565; also called IQGAP1; IQGAP
B21: intersectin 1 (aa 436-547) (other, UniProt Q15811 436-547, looked up)
chain: AAKRELERQRQLEWERNRRQELLNQRNKEQEDIVVLKAKKKTLEFELEALNDKKHQLEGKLQDIRCRLTTQRQEIESTNKSRELRIAEITHLQQQLQESQQMLGRLIPEKQI
notes: range 436-547
B22: Accessory proteins BAP31/BAP29 (BAP31) (aa 184-246) (other, UniProt P51572 184-246, looked up)
chain: LKADLQKLKDELASTKQKLEKAENQVLAMRKQSEGLTKEYDRLLEEHAKLQAAVDGPMDKKEE
notes: range 184-246
B23: Golgi autoantigen (Golgin-84) (aa 198-501) (other, UniProt Q8TBA6 198-501, looked up)
chain: SKENVSSNAACPDHTPTPNDDGKSHELSNLRLENQLLRNEVQSLNQEMASLLQRSKETQEELNKARARVEKWNADHSKSDRMTRGLRAQVDDLTEAVAAKDSQLAVLKVRLQEADQLLSTRTEALEALQSEKSRIMQDQSEGNSLQNQALQTFQERLHEADATLKREQESYKQMQSEFAARLNKVEMERQNLAEAITLAERKYSDEKKRVDELQQQVKLYKLNLESSKQELIDYKQKATRILQSKEKLINSLKEGSGFEGLDSSTASSMELEELRHEKEMQREEIQKLMGQIHQLRSELQDMEA
notes: range 198-501
B24: Golgi autoantigen (Golgin-84) (aa 198-497) (other, UniProt Q8TBA6 198-497, looked up)
chain: SKENVSSNAACPDHTPTPNDDGKSHELSNLRLENQLLRNEVQSLNQEMASLLQRSKETQEELNKARARVEKWNADHSKSDRMTRGLRAQVDDLTEAVAAKDSQLAVLKVRLQEADQLLSTRTEALEALQSEKSRIMQDQSEGNSLQNQALQTFQERLHEADATLKREQESYKQMQSEFAARLNKVEMERQNLAEAITLAERKYSDEKKRVDELQQQVKLYKLNLESSKQELIDYKQKATRILQSKEKLINSLKEGSGFEGLDSSTASSMELEELRHEKEMQREEIQKLMGQIHQLRSELQ
notes: range 198-497

Each binder was assayed against T1, Tsg101 (aa 231-391) (human, UniProt Q99816 231-390) (assay: yeast two-hybrid).
T1 sequence (looked up): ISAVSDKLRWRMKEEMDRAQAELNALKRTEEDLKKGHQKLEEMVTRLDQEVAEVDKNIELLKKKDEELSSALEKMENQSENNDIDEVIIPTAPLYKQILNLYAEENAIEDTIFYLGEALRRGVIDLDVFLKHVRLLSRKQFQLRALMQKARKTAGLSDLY
B1: binds.
B2: binds.
B3: binds.
B4: binds.
B5: binds.

Each binder was assayed against T2, Tsg101 (aa 140-270) (human, UniProt Q99816 140-270) (assay: yeast two-hybrid).
T2 construct: range 140-270
T2 sequence (looked up): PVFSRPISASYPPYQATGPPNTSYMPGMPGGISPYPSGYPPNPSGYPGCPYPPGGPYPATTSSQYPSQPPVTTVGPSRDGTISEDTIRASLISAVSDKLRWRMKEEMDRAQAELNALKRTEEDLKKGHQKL
B6: binds.
B7: binds.
B8: binds.
B9: binds.

These binders were tested against T3, Tsg101 (aa 50-391) (human, UniProt Q99816 50-390) (assay: yeast two-hybrid).
T3 construct: range 50-391
T3 sequence (looked up): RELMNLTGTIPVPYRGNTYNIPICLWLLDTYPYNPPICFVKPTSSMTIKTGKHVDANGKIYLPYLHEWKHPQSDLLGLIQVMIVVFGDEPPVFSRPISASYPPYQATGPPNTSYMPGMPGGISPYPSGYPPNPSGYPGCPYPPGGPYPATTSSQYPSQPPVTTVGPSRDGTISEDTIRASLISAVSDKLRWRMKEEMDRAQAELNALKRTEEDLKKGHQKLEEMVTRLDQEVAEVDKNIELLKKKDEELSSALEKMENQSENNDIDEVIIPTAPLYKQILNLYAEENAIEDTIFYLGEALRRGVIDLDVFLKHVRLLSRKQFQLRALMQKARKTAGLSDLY
B10: binds.
B11: binds.
B12: binds.
B13: binds.

The binders below were run against T4, Tsg101 (aa 240-391) (human, UniProt Q99816 240-390) (assay: yeast two-hybrid).
T4 construct: range 240-391; also called C-terminal fragment of Tsg101; amino acid residues 240-390
T4 sequence (looked up): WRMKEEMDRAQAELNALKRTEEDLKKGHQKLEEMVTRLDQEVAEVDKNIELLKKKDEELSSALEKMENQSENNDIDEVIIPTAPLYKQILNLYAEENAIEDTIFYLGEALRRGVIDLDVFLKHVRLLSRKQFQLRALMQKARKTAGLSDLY
B14: binds.
B15: binds.
B16: binds.
B17: binds.
B18: binds.
B19: binds.
B20: binds.
B21: binds.

What follows are binders tested against T5, Tsg101 (aa 12-326) (human, UniProt Q99816 12-326) (assay: yeast two-hybrid).
T5 sequence (looked up): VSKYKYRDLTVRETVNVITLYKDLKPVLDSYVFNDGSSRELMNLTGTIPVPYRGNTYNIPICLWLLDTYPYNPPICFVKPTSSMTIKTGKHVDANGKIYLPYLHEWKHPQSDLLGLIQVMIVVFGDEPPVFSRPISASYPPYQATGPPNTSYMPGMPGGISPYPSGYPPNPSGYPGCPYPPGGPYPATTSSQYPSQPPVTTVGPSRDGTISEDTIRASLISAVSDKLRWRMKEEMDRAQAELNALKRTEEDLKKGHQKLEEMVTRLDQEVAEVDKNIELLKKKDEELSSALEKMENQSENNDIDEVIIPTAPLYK
B22: binds.
B23: binds.
B24: binds.
